Test results: US7226755

T1: recombinant GST fusion of the Tie-2 intracellular kinase domain
T1 chain: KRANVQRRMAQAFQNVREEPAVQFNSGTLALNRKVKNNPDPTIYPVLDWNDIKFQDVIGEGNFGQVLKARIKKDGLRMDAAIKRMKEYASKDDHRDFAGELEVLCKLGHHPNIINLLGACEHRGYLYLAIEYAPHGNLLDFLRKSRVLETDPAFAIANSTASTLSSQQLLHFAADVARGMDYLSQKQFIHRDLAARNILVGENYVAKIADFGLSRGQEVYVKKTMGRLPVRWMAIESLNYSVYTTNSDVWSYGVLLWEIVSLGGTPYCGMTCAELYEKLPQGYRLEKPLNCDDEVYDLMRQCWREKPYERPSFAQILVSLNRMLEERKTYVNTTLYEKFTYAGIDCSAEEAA

B1: full length HPTPbeta protein (splice variant lacking FNIII repeat 5) (protein)
chain: EPERCNFTLAESKASSHSVSIQWRILGSPCNFSLIYSSDTLGAALCPTFRIDNTTYGCNLQDLQAGTIYNFKIISLDEERTVVLQTDPLPPARFGVSKEKTTSTGLHVWWTPSSGKVTSYEVQLFDENNQKIQGVQIQESTSWNEYTFFNLTAGSKYNIAITAVSGGKRSFSVYTNGSTVPSPVKDIGISTKANSLLISWSHGSGNVERYRLMLMDKGILVHGGVVDKHATSYAFHGLTPGYLYNLTVMTEAAGLQNYRWKLVRTAPMEVSNLKVTNDGSLTSLKVKWQRPPGNVDSYNITLSHKGTIKESRVLAPWITETHFKELVPGRLYQVTVSCVSGELSAQKMAVGRTFPLAVLQLRVKHANETSLSIMWQTPVAEWEKYIISLADRDLLLIHKSLSKDAKEFTFTDLVPGRKYMATVTSISGDLKNSSSVKGRTVPAQVTDLHVANQGMTSSLFTNWTQAQGDVEFYQVLLIHENVVIKNESISSETSRYSFHSLKSGSLYSVVVTTVSGGISSRQVVVEGRTVPSSVSGVTVNNSGRNDYLSVSWLLAPGDVDNYEVTLSHDGKVVQSLVIAKSVRECSFSSLTPGRLYTVTITTRSGKYENHSFSQERTVPDKVQGVSVSNSARSDYLRVSWVHATGDFDHYEVTIKNKNNFIQTKSIPKSENECVFVQLVPGRLYSVTVTTKSGQYEANEQGNGRTIPEPVKDLTLRNRSTEDLHVTWSGANGDVDQYEIQLLFNDMKVFPPFHLVNTATEYRFTSLTPGRQYKILVLTISGDVQQSAFIEGFTVPSAVKNIHISPNGATDSLTVNWTPGGGDVDSYTVSAFRHSQKVDSQTIPKHVFEHTFHRLEAGEQYQIMIASVSGSLKNQINVVGRTVPASVQGVIADNAYSSYSLIVSWQKAAGVAERYDILLLTENGILLRNTSEPATTKQHKFEDLTPGKKYKIQILTVSGGLFSKEAQTEGRTVPAAVTDLRITENSTRHLSFRWTASEGELSWYNIFLYNPDGNLQERAQVDPLVQSFSFQNLLQGRMYKMVIVTHSGELSNESFIFGRTVPASVSHLRGSNRNTTDSLWFNWSPASGDFDFYELILYNPNGTKKENWKDKDLTEWRFQGLVPGRKYVLWVVTHSGDLSNKVTAESRTAPSPPSLMSFADIANTSLAITWKGPPDWTDYNDFELQWLPRDALTVFNPYNNRKSEGRIVYGLRPGRSYQFNVKTVSGDSWKTYSKPIFGSVRTKPDKIQNLHCRPQNSTAIACSWIPPDSDFDGYSIECRKMDTQEVEFSRKLEKEKSLLNIMMLVPHKRYLVSIKVQSAGMTSEVVEDSTITMIDRPPPPPPHIRVNEKDVLISKSSINFTVNCSWFSDTNGAVKYFTVVVREADGSDELKPEQQHPLPSYLEYRHNASIRVYQTNYFASKCAENPNSNSKSFNIKLGAEMESLGGKCDPTQQKFCDGPLKPHTAYRISIRAFTQLFDEDLKEFTKPLYSDTFFSLPITTESEPLFGAIEGVSAGLFLIGMLVAVVALLICRQKVSHGRERPSARLSIRRDRPLSVHLNLGQKGNRKTSCPIKINQFEGHFMKLQADSNYLLSKEYEELKDVGRNQSCDIALLPENRGKNRYNNILPYDATRVKLSNVDDDPCSDYINASYIPGNNFRREYIVTQGPLPGTKDDFWKMVWEQNVHNIVMVTQCVEKGRVKCDHYWPADQDSLYYGDLILQMLSESVLPEWTIREFKICGEEQLDAHRLIRHFHYTVWPDHGVPETTQSLIQFVRTVRDYINRSPGAGPTVVHCSAGVGRTGTFIALDRILQQLDSKDSVDIYGAVHDLRLHRVHMVQTECQYVYLHQCVRDVLRARKLRSEQENPLFPIYENVNPEYHRDPVYSRH
B2: recombinant HPTPbeta catalytic domain (protein)
chain: GDRPLSVHLNLGQKGNRKTSCPIKINQFEGHFMKLQADSNYLLSKEYEELKDVGRNQSCDIALLPENRGKNRYNNILPYDATRVKLSNVDDDPCSDYINASYIPGNNFRREYIVTQGPLPGTKDDFWKMVWEQNVHNIVMVTQCVEKGRVKCDHYWPADQDSLYYGDLILQMLSESVLPEWTIREFKICGEEQLDAHRLIRHFHYTVWPDHGVPETTQSLIQFVRTVRDYINRSPGAGPTVVHCSAGVGRTGTFIALDRILQQLDSKDSVDIYGAVHDLRLHRVHMVQTECQYVYLHQCVRDVLRARKLRSEQHHHHHH

Legend:
[1] = target: full length human Tie-2 receptor
[2] = target: full length human VEGF receptor type 2 (VEGFR2)
Sequence of full length human VEGF receptor type 2 (VEGFR2) (chain, as listed by the source): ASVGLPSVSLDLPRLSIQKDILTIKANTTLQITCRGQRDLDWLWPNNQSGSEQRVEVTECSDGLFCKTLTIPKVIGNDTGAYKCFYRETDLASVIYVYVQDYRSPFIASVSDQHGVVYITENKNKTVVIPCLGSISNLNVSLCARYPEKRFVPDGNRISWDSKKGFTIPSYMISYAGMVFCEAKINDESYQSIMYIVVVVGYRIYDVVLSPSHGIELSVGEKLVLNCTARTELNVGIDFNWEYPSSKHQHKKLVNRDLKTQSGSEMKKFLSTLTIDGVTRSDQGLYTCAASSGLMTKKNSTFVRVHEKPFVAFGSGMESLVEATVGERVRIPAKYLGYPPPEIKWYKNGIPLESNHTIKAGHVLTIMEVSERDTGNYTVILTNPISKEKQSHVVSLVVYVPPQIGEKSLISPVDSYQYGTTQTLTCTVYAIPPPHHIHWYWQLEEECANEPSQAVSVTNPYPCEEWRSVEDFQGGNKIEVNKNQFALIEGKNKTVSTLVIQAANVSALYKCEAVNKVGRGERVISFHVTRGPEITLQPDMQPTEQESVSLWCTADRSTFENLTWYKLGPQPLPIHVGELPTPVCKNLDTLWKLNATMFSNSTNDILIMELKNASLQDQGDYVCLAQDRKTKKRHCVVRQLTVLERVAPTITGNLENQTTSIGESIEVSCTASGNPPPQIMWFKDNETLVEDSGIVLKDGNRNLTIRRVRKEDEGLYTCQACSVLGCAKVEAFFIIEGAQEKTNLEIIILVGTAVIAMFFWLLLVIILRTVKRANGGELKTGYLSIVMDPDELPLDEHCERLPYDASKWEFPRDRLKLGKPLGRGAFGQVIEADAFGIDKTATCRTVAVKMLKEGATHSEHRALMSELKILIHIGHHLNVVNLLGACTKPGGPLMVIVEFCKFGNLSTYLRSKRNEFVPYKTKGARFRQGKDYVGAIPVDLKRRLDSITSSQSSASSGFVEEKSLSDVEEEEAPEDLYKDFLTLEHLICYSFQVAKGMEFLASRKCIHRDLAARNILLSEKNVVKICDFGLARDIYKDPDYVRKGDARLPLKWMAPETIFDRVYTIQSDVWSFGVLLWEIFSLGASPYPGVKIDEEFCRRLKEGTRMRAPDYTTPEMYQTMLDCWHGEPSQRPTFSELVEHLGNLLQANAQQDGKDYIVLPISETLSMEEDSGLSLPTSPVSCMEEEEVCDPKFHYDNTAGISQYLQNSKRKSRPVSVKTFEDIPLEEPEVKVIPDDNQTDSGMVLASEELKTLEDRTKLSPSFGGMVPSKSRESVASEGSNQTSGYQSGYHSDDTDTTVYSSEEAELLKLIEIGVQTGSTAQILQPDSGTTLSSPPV

[3] = target: T1, recombinant GST fusion of the Tie-2 …
[4] = target: recombinant GST fusion of the VEGFR2 intracellular kinase domain
Sequence of recombinant GST fusion of the VEGFR2 intracellular kinase domain (chain, as listed by the source): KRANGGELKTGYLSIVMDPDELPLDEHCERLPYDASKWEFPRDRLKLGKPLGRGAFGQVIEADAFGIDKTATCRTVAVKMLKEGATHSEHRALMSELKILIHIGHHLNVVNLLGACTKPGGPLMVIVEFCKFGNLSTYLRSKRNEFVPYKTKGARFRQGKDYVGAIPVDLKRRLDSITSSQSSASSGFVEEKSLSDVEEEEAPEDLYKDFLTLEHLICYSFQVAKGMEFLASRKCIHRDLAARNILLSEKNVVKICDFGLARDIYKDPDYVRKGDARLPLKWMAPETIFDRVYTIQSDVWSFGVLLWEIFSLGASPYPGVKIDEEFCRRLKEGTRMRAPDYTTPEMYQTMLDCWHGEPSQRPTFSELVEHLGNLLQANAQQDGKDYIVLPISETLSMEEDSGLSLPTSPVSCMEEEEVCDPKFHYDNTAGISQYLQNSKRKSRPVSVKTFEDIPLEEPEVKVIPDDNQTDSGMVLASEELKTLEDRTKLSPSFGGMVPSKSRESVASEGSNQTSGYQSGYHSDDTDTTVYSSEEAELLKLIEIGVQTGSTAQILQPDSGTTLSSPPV

Protein | ligand-induced phosphorylation of the endogenous receptor (anti-phosphotyrosine western blot of immunoprecipitated receptor) in Ang1 stimulated HUVECs [1] | ligand-induced phosphorylation of the endogenous receptor (anti-phosphotyrosine western blot of immunoprecipitated receptor) in VEGFA stimulated HUVECs [2] | anti-phosphotyrosine western blotting of the bead-bound autophosphorylated kinase domain after 2 hours at 37 C with increasing amounts of recombinant HPTPbeta [3] | anti-phosphotyrosine western blotting of the bead-bound autophosphorylated kinase domain after 2 hours at 37 C with increasing amounts of recombinant HPTPbeta [4]
B1 | adenoviral overexpression of HPTPbeta in endothelial cells decreased in ligand-induced phosphorylation of the endogenous VEGFR2 and Tie-2 receptors | adenoviral overexpression of HPTPbeta in endothelial cells decreased in ligand-induced phosphorylation of the endogenous VEGFR2 and Tie-2 receptors |  | 
B2 |  |  | a dose dependent decrease in the phosphorylation of recombinant VEGFR2 and Tie-2 | a dose dependent decrease in the phosphorylation of recombinant VEGFR2 and Tie-2
